The values that follow come from PMC2602806.

What all share (assay): X-ray crystallography
For data set [1], the target named is T1, VP1 RNA-dependent RNA polymerase (cVP1) (Simian rotavirus A SA11 (group A; …, UniProt O37061 1-1088).
T1 sequence: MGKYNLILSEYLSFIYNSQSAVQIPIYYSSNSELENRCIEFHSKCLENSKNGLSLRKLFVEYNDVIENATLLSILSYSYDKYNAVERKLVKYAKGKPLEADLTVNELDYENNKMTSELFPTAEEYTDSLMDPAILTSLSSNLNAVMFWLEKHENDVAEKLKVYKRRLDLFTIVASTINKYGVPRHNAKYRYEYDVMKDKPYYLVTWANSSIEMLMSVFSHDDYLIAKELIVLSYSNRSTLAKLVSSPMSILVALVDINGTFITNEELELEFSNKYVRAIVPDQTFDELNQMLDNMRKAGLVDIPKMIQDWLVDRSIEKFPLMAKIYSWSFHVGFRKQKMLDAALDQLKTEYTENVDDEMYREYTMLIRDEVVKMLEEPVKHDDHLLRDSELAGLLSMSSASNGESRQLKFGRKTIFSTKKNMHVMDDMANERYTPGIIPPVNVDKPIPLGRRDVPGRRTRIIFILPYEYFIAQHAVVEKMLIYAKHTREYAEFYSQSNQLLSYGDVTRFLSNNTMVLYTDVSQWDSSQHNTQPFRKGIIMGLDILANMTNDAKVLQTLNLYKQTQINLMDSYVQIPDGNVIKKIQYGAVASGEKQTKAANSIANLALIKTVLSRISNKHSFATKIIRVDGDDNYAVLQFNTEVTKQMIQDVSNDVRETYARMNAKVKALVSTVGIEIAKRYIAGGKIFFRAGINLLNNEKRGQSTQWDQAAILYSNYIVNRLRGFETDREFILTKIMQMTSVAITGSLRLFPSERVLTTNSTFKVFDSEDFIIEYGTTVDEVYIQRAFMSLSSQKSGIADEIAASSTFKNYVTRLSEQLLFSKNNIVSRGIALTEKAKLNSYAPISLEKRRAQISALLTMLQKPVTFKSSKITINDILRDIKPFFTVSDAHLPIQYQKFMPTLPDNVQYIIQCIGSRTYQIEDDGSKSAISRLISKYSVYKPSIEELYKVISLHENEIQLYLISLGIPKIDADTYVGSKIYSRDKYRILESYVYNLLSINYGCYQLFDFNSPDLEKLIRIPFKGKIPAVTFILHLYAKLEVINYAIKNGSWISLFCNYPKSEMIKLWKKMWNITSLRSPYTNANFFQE

Data set [2] concerns the target T1, VP1 RNA-dependent RNA polymerase (cVP1). The source holds these as a separate data set.
The target is the same in data set [3]. This is another data set of the same source.
The target is the same in data set [4]. This is another data set of the same source.
For data set [5] the target is unchanged. This is another data set of the same source.

Like-named read-outs stand apart in the source and are kept apart here.

On to UGUGACC (ssRNA) [3'CS+ wild type], for which the binding result in data set [1] was “binds”. Turning to AAAAGCC (ssRNA) [3'CS-], the binding result in data set [2] is “binds”. With UGUGCC (ssRNA) [3'CS+ A3-deletion], in data set [3], the binding result is “binds”. Take UGUGAACC (ssRNA) [3'CS+ A-insertion]: in data set [4], the binding result was “binds”.

For the molecule GGCUUU (ssRNA) [5'CS+], the binding result in data set [5] is recorded as “binds”.
